Biological target: P8 carrier peptide (Influenza H5N1)
Test: AUC

## P8 carrier peptide
  percent of the peptide as trimers: 70%
  stoichiometry N: 3

Source: PMC6642127
